Consider 1 substance from US5677159A, “Genomic DNA of human cholesterol 7α-hydroxylase and methods for using it” (Northeastern Ohio University, priority 1995, dated 1997).

The test system of the data set is T1, CC(C)CCC[C@@H](C)[C@H]1CC[C@H]2[C@@H]3CC=C4C[C@@H](O)CC[C@]4(C)[C@H]3CC[C@]12C.
T1 construct: Met-Ala (from the NcoI cloning site) in front of Arg25 (N); made in house; host or cells: E. coli TOPP3 carrying pJL/H7α1.5 (ATCC 69401)
The data set is described as follows: Reconstitution assay of cholesterol 7α-hydroxylase activity at different concentrations of cholesterol (Lineweaver-Burke plot). Type of data set: biochemical, human. The settings on record: other: purified truncated enzyme reconstituted with NADPH-cytochrome P450 reductase and phospholipid, 1 mM NADPH, 37° C., 20 minutes, pH 7.4. On the procedure:
FIG. 10 illustrates a Lineweaver-Burke plot of activities of truncated human and truncated rat cholesterol 7α-hydroxylase in E. coli. Truncated CYP7 activity was measured using a reconstitution assay, such as that described in Example 10, at different concentrations of cholesterol, as indicated. Linear regression was used to draw the line.
The truncated enzyme was purified from recombinant bacteria. Purification methodology is described by Li and Chiang, J. Biol. Chem. 266 (29): 19186 (1991), the contents of which are expressly incorporated by reference herein in its entirety. The activity of CYP7, in both the presence and absence of the compound, is measured as described by Chiang, Meth. Enzym. 206: 483 (1991), the contents of which is expressly incorporated by reference herein in its entirety. […]
The Km and Vmax for cholesterol have been determined in comparison with the truncated, bacterially expressed rat CYP7 enzyme (FIG. 10). […]

For “truncated human cholesterol 7α-hydroxylase (CYP7), amino acids 1 to 24 of the membrane anchor region deleted, SEQ ID NO:5, expressed in E. coli TOPP3-pJL/H7α1.5 (Homo sapiens)”, the Km was found to be 5.85 µM and the maximum rate (Vmax) came out at 0.13 nmol/min.

The Km is the substrate concentration at which the rate is half of its maximum. The Vmax is the top rate of the reaction or transport when substrate is in excess.
